{"source": "patent US20110015120A1", "about": "“Pharmaceutical and cosmetic compositions including lactoferrin, ciclopirox, etidronic acid” (VALETUDO S . r . l ., priority 2009, published 2011)", "molecules": {"B1": {"name": "Lactoferrin (protein, UniProt P02788 20-710, looked up)", "Lactotransferrin": "GRRRSVQWCAVSQPEATKCFQWQRNMRKVRGPPVSCIKRDSPIQCIQAIAENRADAVTLDGGFIYEAGLAPYKLRPVAAEVYGTERQPRTHYYAVAVVKKGGSFQLNELQGLKSCHTGLRRTAGWNVPIGTLRPFLNWTGPPEPIEAAVARFFSASCVPGADKGQFPNLCRLCAGTGENKCAFSSQEPYFSYSGAFKCLRDGAGDVAFIRESTVFEDLSDEAERDEYELLCPDNTRKPVDKFKDCHLARVPSHAVVARSVNGKEDAIWNLLRQAQEKFGKDKSPKFQLFGSPSGQKDLLFKDSAIGFSRVPPRIDSGLYLGSGYFTAIQNLRKSEEEVAARRARVVWCAVGEQELRKCNQWSGLSEGSVTCSSASTTEDCIALVLKGEADAMSLDGGYVYTAGKCGLVPVLAENYKSQQSSDPDPNCVDRPVEGYLAVAVVRRSDTSLTWNSVKGKKSCHTAVDRTAGWNIPMGLLFNQTGSCKFDEYFSQSCAPGSDPRSNLCALCIGDEQGENKCVPNSNERYYGYTGAFRCLAENAGDVAFVKDVTVLQNTDGNNNEAWAKDLKLADFALLCLDGKRKPVTEARSCHLAMAPNHAVVSRMDKVERLKQVLLHQQAKFGRNGSDCPDKFCLFQSETKNLLFNDNTECLARLHGKTTYEKYLGPQYVAGITNLKKCSTSPLLEACEFLRK"}}, "test_system": "MALASSEZIA GLOBOSA", "assay": "Inhibition of Malassezia globosa growth, colony count (UFC/ml) on Dixon's Agar", "format": "cell-based", "conditions": "for dil 10X colony count: 200 μl of suspension diluted 10X on Petri dish; for dil 10X colony count / X50 (calculation made based on the dilution): three replicates; for AVERAGE: average of three replicates; for % reduction of Malassezia globosa cells growth (% increase of antimycotic activity): compared to CICLOPIROXOLAMINE alone; for X50 (calculation made based on the dilution): dil 10X count x50", "protocol": "To assess the capacity of the LACTOFERRIN to enhance the antimycotic action of the CIPROPIROXOLAMIN, a suspension of a MALASSEZIA GLOBOSA STRAIN is inoculated on a specific culture medium and the capacity of the compounds to inhibit the mycotic growth is observed, by counting of the UFC/ml.\nAs first approach, the two compounds are tested at the concentration of 1:500 and, subsequently, diluted in culture medium at 2 decreasing concentrations (10× and 100×) in order to visualize the individual activities. Then in order to evaluate the capacity of the LACTOFERRIN to increase the antimycotic effect of the CICLOPIROXOLAMIN, the same test was carried out on the mix of the two active ingredients at different ratios (1:2 and 1:5).\nEach test was performed three times and the incubation times were 1 and 4 hours respectively.\nBased on the results obtained, the best dilution for the execution of the tests was the 10× dilution and both the incubation times (1 hour and 4 hours) were taken into consideration since the experimental conditions permitted an accurate count to be carried out of the colonies on the Petri dishes.\nThe microorganism used is MALASSEZIA GLOBOSA.\nThe microorganisms were cultured in specific culture medium (Dixon's Agar) until reaching a concentration of approximately […] per ml. Aliquots of 1 ml of this inoculum were then taken to which were added respectively: • Ciclopiroxolamine 1:500 • Lactoferrin 1:500 • Mixture 1:2 Ciclopiroxolamine:lactoferrin • Mixture 1:5 Ciclopiroxolamine:lactoferrin\nAs positive control, the untreated inoculum was used (MALASSEZIA and diluting liquid), as negative controls the two active ingredients in diluting liquid.\nAfter incubations of 1 hour and 4 hours respectively, aliquots of 200 μl of each suspension were spread on Petri dishes.\nFor each treatment, the test was carried out three times and for 3 different dilutions (non diluted suspension (TQ), dilution 10× and dilution 100×).\nThe 54 dishes obtained were then examined, after incubation of 5-6 days and the microbial load of each specimen was calculated (UFC/ml).\nThe % increase of the antimycotic property corresponds to the % reduction of the growth of Malassezia Globosa", "note": "“And” between values parts separate entries of the source, which are not always exact repeats. Equal entries are not always repeated.", "data": [{"molecule": "B1", "values": [{"measurement": "Log (AVERAGE)", "setting": "period of incubation 1 hour", "result": 4.13}, {"measurement": "dil 10X colony count", "setting": "period of incubation 1 hour", "result": "303 and 256 and 250"}, {"measurement": "AVERAGE", "setting": "period of incubation 1 hour", "result": 13483.33, "unit": "UFC/ml"}, {"measurement": "% reduction of Malassezia globosa cells growth (% increase of antimycotic activity)", "setting": "period of incubation 1 hour", "result": "−39.4", "unit": "%"}, {"measurement": "X50 (calculation made based on the dilution)", "setting": "period of incubation 1 hour", "result": "15150 UFC/ml and 12800 UFC/ml and 12500 UFC/ml"}, {"measurement": "Log (AVERAGE)", "setting": "period of incubation 4 hour", "result": 4.109}, {"measurement": "dil 10X colony count", "setting": "period of incubation 4 hour", "result": "340 and 232 and 200"}, {"measurement": "AVERAGE", "setting": "period of incubation 4 hour", "result": 12866.67, "unit": "UFC/ml"}, {"measurement": "% reduction of Malassezia globosa cells growth (% increase of antimycotic activity)", "setting": "period of incubation 4 hour", "result": "−695.8", "unit": "%"}, {"measurement": "X50 (calculation made based on the dilution)", "setting": "period of incubation 4 hour", "result": "17000 UFC/ml and 11600 UFC/ml and 10000 UFC/ml"}]}]}
